Results on one protein are retold here after PMC1894825, “Transcriptional Regulation of Multi-Drug Tolerance and Antibiotic-Induced Responses by the Histone-Like Protein Lsr2 in M. tuberculosis” (PLoS Pathogens, 2007).

The data set concerns the molecule itself. The data set can be described thus: cross-linking.

B1: recombinant Lsr2 (M. tuberculosis, Rv3597c) (natural protein)
chain: not shown
notes: also called rLsr2; not shown: His6, N-terminal, kept
For the protein B1, the binding result is recorded as “binds”.
